One block for each substance: values may come before it.
Legend:
[1] = biological target: MP-5rf (miniACE2-(EAAAK)5-foldon, trivalent) (bacteriophage T4); test: SEC
[2] = biological target: MP-3ff (miniACE2-(GGGGS)3-foldon, trivalent) (bacteriophage T4); test: SEC
[3] = biological target: RBD of the S protein of SARS-CoV-2 (Wuhan-Hu-1) (SARS-CoV-2 (Wuhan-Hu-1)) (UniProt P0DTC2); test: BLI; Octet RED96e; RBD (Wuhan-Hu-1) immobilised on HIS1K biosensors; analyte 50-3.125 nM miniACE2 or 100-3.125 nM MP-5ff in 1x PBS, 0.02% Tween-20, 0.1% BSA; association 1 min, dissociation 3 min; 1:1 binding model
[4] = biological target: MP-5ff (miniACE2-(GGGGS)5-foldon, trivalent) (bacteriophage T4); test: SEC
[5] = biological target: MP-3fc (miniACE2-(GGGGS)3-coiled-coil, trivalent); test: SEC
[6] = biological target: MP-3rc (miniACE2-(EAAAK)3-coiled-coil, trivalent); test: SEC
[7] = biological target: MP-5rc (miniACE2-(EAAAK)5-coiled-coil, trivalent); test: SEC
[8] = biological target: MP-3rf (miniACE2-(EAAAK)3-foldon, trivalent) (bacteriophage T4); test: SEC
[9] = biological target: MP-5fc (miniACE2-(GGGGS)5-coiled-coil, trivalent); test: SEC

stoichiometry N [1]: 3
Substance: MP-5rf (miniACE2-(EAAAK)5-foldon, trivalent) (designed binder)

stoichiometry N [2]: 3
Substance: MP-3ff (miniACE2-(GGGGS)3-foldon, trivalent) (designed binder)

Substance: miniACE2 (microprotein LCB3) (designed binder)
Kd [3]: 1.03 nM | koff [3]: 0.000986 s⁻¹

Kd [3]: < 0.001 nM | koff [3]: < 1e-07 s⁻¹ | stoichiometry N [4]: 3
Substance: MP-5ff (miniACE2-(GGGGS)5-foldon, trivalent) (designed binder)

stoichiometry N [5]: 3
Substance: MP-3fc (miniACE2-(GGGGS)3-coiled-coil, trivalent) (designed binder)

stoichiometry N [6]: 3
Substance: MP-3rc (miniACE2-(EAAAK)3-coiled-coil, trivalent) (designed binder)

stoichiometry N [7]: 3
Substance: MP-5rc (miniACE2-(EAAAK)5-coiled-coil, trivalent) (designed binder)

stoichiometry N [8]: 3
Substance: MP-3rf (miniACE2-(EAAAK)3-foldon, trivalent) (designed binder)

stoichiometry N [9]: 3
Substance: MP-5fc (miniACE2-(GGGGS)5-coiled-coil, trivalent) (designed binder)
